These results are taken from the supplement of paper PMC9170038.

The subject of data set [1] is MS2 coat protein. The data set can be described thus: apparent KD of MS2 coat protein, switch ON state; designed switch direction (-1 OFF switch, 1 ON switch): -1; higher = weaker reporter binding. The settings on record: FMN input: 0 or 200 uM; Eterna round: R93 (includes R88 designs). The procedure, abridged: (§1)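 Apparent KD was obtained for each design as the median of normalised binding-curve fits over its clusters. RNA switches transcribed on-chip from Illumina sequencing clusters were titrated with SNAP-549-labelled MS2 coat protein (twofold steps, 0.7 or 1.5 nM to 3 µM) in 100 mM Tris-HCl pH 7.5, 80 mM KCl, 4 mM MgCl2, without or with constant ligand.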

Data set [2] concerns MS2 coat protein. The data set can be described thus: apparent KD of MS2 coat protein, switch OFF state (with FMN for OFF switches, without FMN for ON switches); designed switch direction (-1 OFF switch, 1 ON switch): -1; higher = weaker reporter binding. The settings on record: FMN input: 0 or 200 uM; Eterna round: R93 (includes R88 designs). A digest of the protocol:
as §1

For data set [3], the system named is MS2 coat protein. Nature of the data set: apparent KD of MS2 coat protein; designed switch direction (-1 OFF switch, 1 ON switch): 1; higher = weaker reporter binding. A digest of the protocol:
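On Illumina chips, designed RNA switches with common flanks were made by stalled E. coli RNA polymerase. Titrations with SNAP-549-labelled MS2 coat protein, doubling from 0.7 or 1.5 nM to 3 µM, were done with no input, with 200 uM small-molecule ligand, or with an oligonucleotide input. Apparent KD is the median per design over clusters, from curve fits of normalised cluster fluorescence.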

The mark [4] stands for this setting: input ligand: microRNA oligo, concentration not stated.
Where [5] appears, read: Eterna round: R95, input ligand: microRNA oligo, concentration not stated.

Turning to “AAAAAACAUGAGGAUCACCCAUGUAAGGAUAUCGGAAAAGGAAAAAAAAAAAAGAAGACGAGAAGGUACACCAA”, the results for the “apparent KD of MS2 coat protein” value in the data set on MS2 coat protein [1] and in the data set on MS2 coat protein [2] were 25.9 nM and 31.5 nM, respectively.
Taken in the same sequence, the figures for “AAAAAACAUGAGGAUCACCCAUGUAAGGAUAUCUAAAAUAAAAGAAAAAUAAAGAAAAGGAGAAGGUACAAGGA [JL wbt mod 25]” were 13.8 nM and 32.6 nM.
The matching figures for “AAAAAACAUGAGGAUCACCCAUGUAAGGAUAUGCUAAAAAAAAAAAAAAAAAAAAAAUGCAGAAGGUACAAAAA [water's exclusion 1 again]”: 40.4 nM and 40.2 nM.
On to “AAAAAACAUGAGGAUCACCCAUGUAAGGAUAUGCUCGUGCGAAAAAGCACAAAAAAGAGCAGAAGGUACAAAAA [66%, Wbt, 40]”, for which the “apparent KD of MS2 coat protein” value was found to be 18.8 nM in the data set with MS2 coat protein [1] and 34.4 nM in the data set on MS2 coat protein [2].
Taken in the same sequence, the figures for “AAAAAACAUGAGGAUCACCCAUGUAAGGAUAUGCUGAAAAAACACUGGAAACAGUGCAGCAGAAGGUACAAAAA [66%, Wbt, 35]” were 21.5 nM and 27.2 nM.
Regarding “AAAAAACAUGAGGAUCACCCAUGUCAGGAUAUCGAAAAGAAAAGAAAAGAAAGAAGAACGAGAAGGGACAAGAA [Menkaura]”, the “apparent KD of MS2 coat protein” value stood at 29.3 nM with MS2 coat protein [1] and 24.5 nM in the data set on MS2 coat protein [2].
Consider “AAAAAACAUGAGGAUCACCCAUGUCAGGAUAUGAACGAAAAUAAAUAAAAAUAAAAGUUCAGAAGGGACGAAAA [66%, Wbt, 17]”, for which the “apparent KD of MS2 coat protein” value with MS2 coat protein [1] came to 38 nM; with MS2 coat protein [2], 41.5 nM.
Turning to “AAAAAACAUGAGGAUCACCCAUGUCAGGAUAUGCCAACCUAAAAAAAAAAAAAAAAACGUAGAAGGGACAAAAA [Bilbo Confounded 2 - Jieux - Exclusion 1]”, the “apparent KD of MS2 coat protein” value came out at 28.7 nM in the data set with MS2 coat protein [1] and 23.5 nM with MS2 coat protein [2].
In the case of “AAAAAACAUGAGGAUCACCCAUGUGAGGAUAUACGAAAGUAGAAGGCACUAAAAAAAAAAAGAAGGAAAAAAAA [Meechl Ex1 R2 m0]”, the “apparent KD of MS2 coat protein” value with MS2 coat protein [1] was 24.2 nM; with MS2 coat protein [2] it was 42.4 nM.
Regarding “AAAAAACAUGAGGAUCACCCAUGUGAGGAUAUCCAGAAGGGAAUAAAAUAACACGAAAGGAGAAGGCACAAAAA [Ex 1 May 36]”, the “apparent KD of MS2 coat protein” value with MS2 coat protein [1] was 34 nM; in the data set with MS2 coat protein [2], 31.7 nM.
Taken in the same sequence, the figures for “AAAAAACAUGAGGAUCACCCAUGUGAGGAUAUCGUGCAGAAAAAAAAAAAAAACUGCACGAGAAGGCACAUGAA” were 38.9 nM and 105 nM.
For the sequence “ACAGCUGAAGGAUAUACUUGGAAAAAAAAAAAAAAAAAAAAACAUGAGGAUCACCCAUGUAGAAGGUCAGCUGA [Brourd - Exclusion 2 - Sub 2]”, in the data set on MS2 coat protein [1], the “apparent KD of MS2 coat protein” value amounted to 50.3 nM.
On to “UUCUCCUUUUUUUACAUGAGGAUCACCCAUGUUUUUCUUACGUAGGAUAUCGUUGUUUUUUUUUACGAGAAGGACGUAGUAAGU [JR_SSND3_Sub060] (Eterna round: R96, puzzle: Same State NG 3)”, for which the “apparent KD of MS2 coat protein” value in the data set on MS2 coat protein [3] (input ligand: FMN 200 uM) was 31.5 nM; with MS2 coat protein [3] (setting [4]), 25.8 nM; in the data set on MS2 coat protein [3] (input ligand: none) it was 36.2 nM.
For the sequence “UUCUGAUAGCGAGGAUAUCGCGAGGAUCACCCGUGAGAAGGCGCAGAGCCGAGGAUCACCCGGCUGAUCCUGAGAAGGAGGUCA (Eterna round: R96, puzzle: Same State NG 1)”, the entries for the “apparent KD of MS2 coat protein” value with MS2 coat protein [3] (input ligand: FMN 200 uM), in the data set with MS2 coat protein [3] (setting [4]) and with MS2 coat protein [3] (input ligand: none) were 136 nM, 333 nM and 530 nM, respectively.
Taken in the same sequence, the figures for “UUGAAGAAUUAAGGAUAUCGAGUCGUCAGAUUUUACAUGAGGAUCACCCAUGUGGGUUGCGGUAUCGAGAAGGUAAAUUACAAG [JL JR Sub099 mod 6] (Eterna round: R96, puzzle: Same State NG 2)” were 24.4 nM, 34.1 nM and 43.3 nM.
The matching figures for “UUGAAGAAUUAAGGAUAUUGAAUACAUAUGUUUAACAUGAGGAUCACCCAUGUGGGUUGCGGUAUCGAGAAGGUAAAUUACUAA [Mat - Same State NG 2 - JL mod - D1] (Eterna round: R96, puzzle: Same State NG 2)”: 140 nM, 80.5 nM and 112 nM.
The matching figures for “UUGAAGAAUUAAGGAUAUUGAGUACAUAUGUUAAACAUGAGGAUCACCCAUGUGGGUUGCGGUAUCGAGAAGGUAAAUUACUAG [Mat - same State NG 2 - JL mod - D68] (Eterna round: R96, puzzle: Same State NG 2)”: 90.9 nM, 46.8 nM and 70.8 nM.
With “UUGAAUAAUUAAGGAUAUCGAGUCAAGAUGUUAAACAUGAGGAUCACCCAUGUGGGUUGCGGUAUCGAGAAGGUAAAUAAGAAG [Mat - Same State NG 2 - JL mod - D55] (Eterna round: R96, puzzle: Same State NG 2)”, the entries for the “apparent KD of MS2 coat protein” value in the data set with MS2 coat protein [3] (input ligand: FMN 200 uM), in the data set with MS2 coat protein [3] (setting [4]) and with MS2 coat protein [3] (input ligand: none) were 26.6 nM, 19.6 nM and 42.5 nM, respectively.
Regarding “UUGAUUAGAAGUUAACAUGAGGAUCACCCAUGUAUUGGAUCAGAGGAUAUGCAUGUUUGAUAGUAGCAGAAGGCUGAUGGUGGA [JR_SSNG3_Sub026] (Eterna round: R96, puzzle: Same State NG 3)”, the “apparent KD of MS2 coat protein” value in the data set on MS2 coat protein [3] (setting [4]) came to 39.8 nM.
As to “UUGCGCUGUCGAGAGGAUAUGCGGUGUUGGACAUGAGGAUCACCCAUGUUUGCGAUAGCUUUACGGUAGAAGGCUCUUCAGCUGC [salish99_ss2_r3_099] (puzzle: Same State 2)”, the “apparent KD of MS2 coat protein” value in the data set with MS2 coat protein [3] (setting [5]) is 45.8 nM.
With “UUGCGGGCUUGAGGAUAUUGAGUACAUAUGUUUAACAUGAGGAUCACCCAUGUGGGUUGCGGUAUCGAGAAGGUGGCUUCCUGC [salish99_SSNG2_r04_813] (Eterna round: R96, puzzle: Same State NG 2)”, the “apparent KD of MS2 coat protein” value is 81.9 nM with MS2 coat protein [3] (input ligand: FMN 200 uM), 82.7 nM in the data set on MS2 coat protein [3] (setting [4]) and 74.8 nM with MS2 coat protein [3] (input ligand: none).
“UUGCUCGUGUGAGGAUAUGCCGCCGUUUCGGCUGCAGAAGGUACUCUUAUACAUGAGGAUCACCCAUGUCUCUGUUGUUUCGUG [salish99_SSNG1_r04_936] (Eterna round: R96, puzzle: Same State NG 1)”: the “apparent KD of MS2 coat protein” value with MS2 coat protein [3] (input ligand: FMN 200 uM) was determined as 97.9 nM; in the data set on MS2 coat protein [3] (setting [4]), 65.3 nM; in the data set with MS2 coat protein [3] (input ligand: none), 98.2 nM.
With “UUGCUCGUGUGAGGAUAUGCCGCCGUUUCGGCUGCAGAAGGUACUCUUGUACAUGAGGAUCACCCAUGUCUCUGUUGUUUCGUG [salish99_SSNG1_r04_938] (Eterna round: R96, puzzle: Same State NG 1)”, the “apparent KD of MS2 coat protein” value in the data set on MS2 coat protein [3] (setting [4]) is 43.6 nM.
For the sequence “UUUAGUUGCGGGCAGGAUAUGUAUUAAAAUACAUGAGGAUCACCCAUGUGAGAUCGAAAAGAUCUACAGAAGGGCCAAUCGCGAC [Laonerce - 24] (puzzle: Same State 2)”, the “apparent KD of MS2 coat protein” value in the data set on MS2 coat protein [3] (Eterna round: R95, input ligand: FMN 200 uM) is 14 nM; with MS2 coat protein [3] (setting [5]), 58.3 nM; in the data set with MS2 coat protein [3] (Eterna round: R95, input ligand: none), 85.8 nM.
For the sequence “UUUGGGUGGCUGGAGGAUAUUCUAGUGGUUACAUGAGGAUCACCCAUGUGUCGCGCGGUUCGCGAGGAGAAGGCUGGCGGCCGUU (puzzle: Same State 2)”, the “apparent KD of MS2 coat protein” value with MS2 coat protein [3] (setting [5]) was determined as 93.3 nM.
For “UUUUCGAACCGAGGAUAUCCUUAUAAGAAACAUGAGGAUCACCCAUGUAAAGGGAAUUAUUUGAAGGAGAAGGCGGAUUUUGUU [JR_SSNG2_Sub053] (Eterna round: R96, puzzle: Same State NG 2)”, the “apparent KD of MS2 coat protein” value in the data set on MS2 coat protein [3] (setting [4]) stood at 33.5 nM.
